Patent publication US6638508B2, “Modified avidin-type molecules as targeting agents for the liver and cells of the reticuloendothelial system” (Yeda Research and Development Co., Ltd., priority 1995, dated 2003)

Experiments:
[1] = Pt content in organs by flame atomic absorption spectrometry after CDDP complexed to BT1-CMdex-TNP-St or free CDDP; type: in vivo, mice; details: 2 h following injection of 300 μg free CDDP
Experimental: Pharmacokinetic studies confirmed the assumption of sustained release and prolonged maintenance of the complexed drug, as compared to the rapid elimination and inactivation of the free drug (Schechter et al., 1989a). Complexing CDDP to BT1-CMdex: BT1-CMdex (T-40) (0.15mM) was reacted with CDDP in DDW at a molar ratio of 1:60 for 24 h at 37° C. Following dialysis, the resulting BT1-CMdex-Pt contained 23-27 CDDP/CMdex. The complex BT1-CMdex-CDDP was reacted with TNP-St (at a ratio of 4:1) for targeting to the liver. […] To show the actual targeting of CDDP to the liver, CDDP was quantitatively determined in organs obtained at set time intervals following injection of 185 μg CDDP complexed to BT1-CMdex-TNP-St. Blood and organs were blended in an Ika Werk Ultra-Turrax blender (Jankel&Kunkel KG) in 5×Vol/tissue weight of 0.1N NaOH for 30 seconds. After centrifugation, the supernatants were filtered through Minisart 5 μm filter and the Pt content in the samples was determined by flame atomic absorption spectrometry (AA) at 265.9 nm in air-acetylene flame (in a Perkin Elmer 5100 PC spectrophotometer). Standards were prepared in a solution with matrix identical to that of the samples (i.e., normal tissues), to account for possible matrix interference. Results are expressed as %/g, i/organ or μg/organ in individual mice.

[2] = [3H] radioactivity in tissue extracts after BT1-CMdex-FUR ([3H]-uridine) alone or complexed to TNP-St; type: in vivo, mice; details: 1 and 4 h
Experimental: The actual targeting of FUR to the liver was carried out by a BT1-CMdex (T-40)-FUR product in which FUR was trace-labeled with [^3H] uridine. Mice were injected with BT1-CMdex-FUR-([^3H]-uridine) alone or complexed to TNP-St and at set time intervals blood was withdrawn, organs were dissected out and weighed. Tissue extracts were prepared by blending blood and organs in an Ika Werk Ultra-Turrax blender in 5× vol (ml)/tissue weight (g) of 0.1N NaOH for 30 sec. After centrifugation, 50 μl samples were counted for [^3H] radioactivity. Results are expressed as %/g tissue or %/organ. As shown in FIGS. 11A and 11B, levels of untargeted BT1-CMdex-FUR ([^3H]-uridine) were low. […] Radioactivity levels in other organs were in the range of 5%/g tissue or less than 1%/organ (FIG. 11B). It can be calculated that upon injection of 200μg TNP-St as a vehicle for BT1-CMdex-FUR, 25 μg of the drug can be accumulated per gram liver.

[3] = Biodistribution of radioiodinated (125I) proteins, modified avidin-type molecules and their complexes after i.v. injection
Experimental: (ii) Animals. Age-matched CD-1 male mice (6-12 weeks old) were used in the experiments.
(iii) Biodistribution experiments. Groups of age-(6-12 weeks) and weight-matched male CD-1 mice were given intravenous (i.v.) injections into the lateral tail vein of radioiodinated ^125I-TNP- or ^125I-lactosylated-St (most biodistribution experiments were done in the range of 1-10 μg protein, 1 mCi of ^125I) into the lateral tail vein. At the time intervals indicated, blood samples were withdrawn from the tail, the mice were killed and their organs were dissected out, washed in PBS, blotted dry, weighed and counted for radioactivity. […] In subsequent experiments, CD-1 male mice were used and the results are presented as %/g or %/organ for single a single mouse or %/g ±SD or %/organ ±SD for pairs of mice unless otherwise stated.
(ii) Radioiodination. Proteins (0.2 mg/0.2ml) in 0.2M phosphate buffer pH 8.0 were reacted for 2 min with Na^125I (0.5 mCi for biodistribution experiment and 2.5mCi for external monitoring) in the presence of Chloramine-T (2mg/ml, 10 or 100 μl) in PBS for 2 min. The reaction, which facilitates attachment of the radioactive iodine to tyrosines, was terminated by the addition of sodium metabisulfite (2mg/ml, 10 or 100 μl) in PBS for 2 min followed by the addition of potassium iodide and carrier BSA (1 mg of each/0.1 ml PBS). The radioiodinated proteins ^125I-TNP-proteins were then chromatographed on Sephadex G-25 in PBS. TNP modification can take place before or after radioiodination. Avidin and TNP-Av, being low in tyrosine content (molar ratio of 4 tyrosine/avidin as compared to 24 tyrosine/streptavidin), were radiolabeled by ^125I-biotinyl-tyrosine as described below in Example 6.

[4] = Toxicity studies: liver histology, body weight and survival; type: in vivo, CD-1 mice; details: dose of 300 μg, observed for 4 months
[5] = mouse, in vivo; cited from earlier work

Question: Which “Pt in liver or other organs” value [1] does the source give for `N.N.[Cl][Pt][Cl]` [CDDP, cis-dichlorodiamine platinum (cisplatin)] here?
Answer: essentially no Pt could be found

Question: For `O=c1[nH]c(=O)n([C@@H]2O[C@H](CO)[C@@H](O)[C@H]2O)cc1F` [FUR, 5-fluorouridine], which “tissue levels of free drug” value [2] is on record?
Answer: around 1 %/g tissue

Question: Which liver accumulation ([3]; liver, 24 h, FIG. 16) does the source give for “DTPA-Gd substituted St: Gd-DTPA derivative of streptavidin” here?
Answer: did not accumulate in the liver

Question: For “Lac-St: lactosylated streptavidin, molar substitution ratio 5:1”, which “non-hepatic values, fold lower than St or TNP-St” value ([3]; mouse, in vivo) is on record?
Answer: 10-20 fold

Question: What does the source list for “TNP-Av: avidin modified with 2,4,6-trinitrophenyl (TNP) groups”?
Answer: accumulation in the liver ([3]; mouse, in vivo): 30-40 %/g; accumulation in the spleen ([3]; mouse, in vivo): 10-15 %/g; effect on body weight or survival [4]: did not seem to affect

Question: For “TNP-NL-Av: TNP-modified NeutraLite Avidin, a deglycosylated form of avidin”, which “accumulation in the spleen” value ([3]; mouse, in vivo) is on record?
Answer: up to 20 %/g

Question: For “^125I-BT-St: radioiodinated biotinyl-tyrosine complexed to unmodified streptavidin”, which “accumulation in whole kidney, % of injected dose of radioactivity/organ” value ([3]; mouse, in vivo) is on record?
Answer: 10%

Question: With “^125I-BT-TNP-St: radioiodinated biotinyl-tyrosine complexed to TNP-streptavidin” as the compound, how does the “accumulation in whole liver, % of injected dose of radioactivity/organ” value ([3]; mouse, in vivo) read?
Answer: 66-68%

Question: Which “accumulation in the kidney” value ([3]; mouse, in vivo) does the source give for streptavidin here?
Answer: 70-80%

Question: What about the blood levels ([3]; mouse, in vivo) of the same compound?
Answer: 22-33 %/g

Question: What about the “levels in other tissues, including the liver” value ([3]; mouse, in vivo) of the same compound?
Answer: < 10 %/g

Question: And the “% of the total injected dose accumulated in each kidney” value [5]?
Answer: 15%

Question: What about the “levels in other organs” value [5] of the same compound?
Answer: 0.3-4 %/g
